The values below come from PMC7861488.

Where two headings read alike, the source gives them in different places.

What all share (test): graphene FET
Data set [1] concerns the target T1, TNF-alpha (UniProt P01375 77-233).
Data set [2] concerns the target T1, TNF-alpha. The source holds these as a separate data set.
For data set [3], the target named is T1, TNF-alpha. This is another data set of the same source.
Data set [4] deals with T1, TNF-alpha. This is another data set of the same source.
The target in data set [5] is T1, TNF-alpha. The source holds these as a separate data set.
Data set [6] has as its target T1, TNF-alpha. The source holds these as a separate data set.
Data set [7] addresses T1, TNF-alpha. The source holds these as a separate data set.
For data set [8], the target named is T1, TNF-alpha. This is another data set of the same source.
Data set [9] has as its target T1, TNF-alpha. This is another data set of the same source.

T1 sequence (P01375 77-233): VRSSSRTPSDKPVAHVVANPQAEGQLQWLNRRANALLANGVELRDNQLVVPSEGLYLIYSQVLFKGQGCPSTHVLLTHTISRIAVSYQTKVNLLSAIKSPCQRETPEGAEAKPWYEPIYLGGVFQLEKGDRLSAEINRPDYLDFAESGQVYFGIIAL

In the case of TGGTGGATGGCGCAGTCGGCGACAA (ssDNA, 5'-NH2 (coupled to PASE on graphene)) [VR11], the Kd – broadly, the concentration at which binding is half-saturated – in the data set with TNF-alpha [1] is 15.6 nM; in the data set with TNF-alpha [2], 15 nM; in the data set with TNF-alpha [3] it was 15.5 nM; with TNF-alpha [4] it was 15.1 nM; with TNF-alpha [5], 14.2 nM; in the data set with TNF-alpha [6], 14.7 nM. Moreover, the dissociation constant Kd came to 15.1 nM with TNF-alpha [7], 14.3 nM with TNF-alpha [8] and 14.2 nM in the data set with TNF-alpha [9].
